# B1: mAb-80, displayed on nPnP hybridoma cells (single-ORF linker format) (antibody, V domains shown)
# VH: EVQLVESGGGLVQPGGSLRLSCAASGFTFSSYWMHWVRQAPGKGLVWVSRINSDERNTRYADSVRGRFTISRDNAKNTLSLQMNSLRVDDTAVYYCARGGAAISYLYYYYGMDVWGQGTTVTVSS
# VL: not shown
# B2: mAb-111, displayed on nPnP hybridoma cells (single-ORF linker format) (antibody, V domains shown)
# VH: DVQLLESGGGLVQPGGSRRLSCAASGFTFSNHAMSWVRQAPGKGLEWVSSISGSGGSTDYGDSVKGRFIVSRDNPRNTLYLDMNNLRTQDTAVYYCAKDRTFFTDSMLESWGEGTLVTVSS
# VL: DIQMTQSPSSLSASVGDRVTITCRASQTISKSLNWYQQRPGKAPKLLIYAASNLQSGFPSRFSGSGSGTDFTLTISSVQPGDFATYYCQQTYSTPVTFGQGTTLEIK
# B3: mAb-78, displayed on nPnP hybridoma cells (single-ORF linker format) (antibody, V domains shown)
# VH: QVQLVESGGGVVQPGRSLTLSCAVSGFSFNNYGMHWVRQAPGKGLEWVSFISYEGSKRYYMDSLKGRFTISRDSSKNEVYLQMNRLTPEDTAVYYCAKSRAYFHFSAGRGVFDYWGRGALVTVSS
# VL: DMQMTQSPSSLSASVGDRVTITCQASQDIGTYLNWYRHKPGEAPKLLIYHASNLETGVPSRFSGSGSGTDFSFTISSLQPEDIGTYYCQQYDDLPVFAFGPGTKVDLK
# B4: mAb-56, displayed on nPnP hybridoma cells (single-ORF linker format) (antibody, V domains shown)
# VH: EVQLVESGGGLIQPGGSMRLSCAASGFSVGTTYMSWVRQAPGKGLEWVSVVFKGHDTYYRKSVKGRFTISRDSSKNTLYLQMSDLRAEDSAVYFCTNMVLTYDSGWYWLDYWGQGIRVTVSS
# VL: DIQMTQSPSPLSAFVGDMVTITCRASQSINNFLNWYQQKPGKAPRLLIYGASTLETGVPTRFSGSGSGTDFTFTISSLQPEDIATYYCQQYDNLPLTFGGGTKVEIK
# B5: mAb-115, displayed on nPnP hybridoma cells (single-ORF linker format) (antibody, V domains shown)
# VH: EVQVVESGGGLVKPGGSLRLSCSVSGTTLADAWLNWVRQAPGKGLEWVGRIKSKPDVGTTEYAAPVKGRFIISRDDSGNSFFLQMTDLKPEDTAVYYCAARWEMQLWLRLFDFWGPGALVTVSS
# VL: EIVVTQSPATLSVSAGERANLSCRTSQSISRDLAWYQQKPGQAPRLLIYGVFSRATGIPARFSGSGSGTEFTLTISSLQSEDFAVYYCQQYNKWWTFGQGTKVEIK
# B6: CR3022, secreted by nPnP hybridoma cells (single-ORF linker format), supernatant (antibody, V domains shown)
# VH: QMQLVQSGTEVKKPGESLKISCKGSGYGFITYWIGWVRQMPGKGLEWMGIIYPGDSETRYSPSFQGQVTISADKSINTAYLQWSSLKASDTAIYYCAGGSGISTPMDVWGQGTTVTVSS
# VL: not shown
# B7: mAb-76, displayed on nPnP hybridoma cells (single-ORF linker format) (antibody, V domains shown)
# VH: QVQLQQWGAGLLKPSETLSRTCGVYGGSFSGFYWSWIRQPPGKGLEWIGEINQSGTTSYNPSLMSRVTVSVDTSKNQFSLKLNSVTAADTAVYYCARRRSSWFEAGVHWYFDLWGRGTLVTVSS
# VL: DIVMTQSPLSLAVTPGEPASISCRSSQSLLHSNGYNYLDWYLQKPGQSPQVLIYLGSNRASGVPDRFSGSGSGTDYTLKISRVEAEDAGVYYCMQALQTPTFGRGTKLEIK
# Assays:
# SARS-CoV-2 S2-mFc = SARS-CoV-2 S2-mFc (SARS-CoV-2, original strain, UniProt P0DTC2); assay: flow cytometry on cells
# SARS-CoV-2 RBD-mFc = SARS-CoV-2 RBD-mFc (SARS-CoV-2, original strain, UniProt P0DTC2); assay: flow cytometry on cells
# SARS-CoV-2 Nucleocapsid = SARS-CoV-2 Nucleocapsid (SARS-CoV-2, UniProt P0DTC9); assay: ELISA
Binder,binding result (SARS-CoV-2 S2-mFc),other results
B1,binds,–
B2,binds,–
B3,binds,–
B4,–,binding result (SARS-CoV-2 RBD-mFc): binds
B5,binds,–
B6,–,binding result (SARS-CoV-2 Nucleocapsid): no binding
B7,–,binding result (SARS-CoV-2 RBD-mFc): binds
